Test system: Escherichia coli TOP10
Test: shrunken log2 fold change of peptide-encoding DNA abundance (4.5 h post-induction vs induction); higher = less antimicrobial activity (less host growth inhibition)
Settings: time post-induction: 4.5 h; library: site-saturation at positions 5, 18, 19, 20
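Further: peptides expressed intracellularly from a pBAD plasmid library in pooled LB shake-flask culture, induced with 0.3% L-arabinose, DNA abundance read by NGS, three biological replicates, DESeq2 with apeglm shrinkage.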

## RRIRGRPPRLPRPRPRPTQLPRP
  shrunken log2 fold change: 1.02

## RRIRRRPPRLPRPRPRPPMPPRP
  shrunken log2 fold change: 0.568

## RRIRYRPPRLPRPRPRPIDAPRP
  shrunken log2 fold change: -0.284

## RRIRERPPRLPRPRPRPKDSPRP
  shrunken log2 fold change: -0.212

## RRIRLRPPRLPRPRPRPTRFPRP
  shrunken log2 fold change: 0.42

## RRIRNRPPRLPRPRPRPTMGPRP
  shrunken log2 fold change: -0.0468

## RRIRFRPPRLPRPRPRPAIFPRP
  shrunken log2 fold change: -0.416

## RRIRHRPPRLPRPRPRPQKNPRP
  shrunken log2 fold change: -0.3

## RRIRVRPPRLPRPRPRPAKLPRP
  shrunken log2 fold change: 0.139

## RRIRNRPPRLPRPRPRPCKRPRP
  shrunken log2 fold change: -0.0122

## RRIRDRPPRLPRPRPRPTWEPRP
  shrunken log2 fold change: 1.13

## RRIRWRPPRLPRPRPRPFICPRP
  shrunken log2 fold change: -0.309

## RRIRPRPPRLPRPRPRPTILPRP
  shrunken log2 fold change: -0.104

## RRIRKRPPRLPRPRPRPWYRPRP
  shrunken log2 fold change: 0.0232

## RRIRARPPRLPRPRPRPQYYPRP
  shrunken log2 fold change: -0.452

## RRIRSRPPRLPRPRPRPIDCPRP
  shrunken log2 fold change: -1.27

## RRIRHRPPRLPRPRPRPHNQPRP
  shrunken log2 fold change: -0.521

## RRIRDRPPRLPRPRPRPSIAPRP
  shrunken log2 fold change: 0.146

## RRIRGRPPRLPRPRPRPGCKPRP
  shrunken log2 fold change: 0.441

## RRIRCRPPRLPRPRPRPVPFPRP
  shrunken log2 fold change: -0.132

## RRIRTRPPRLPRPRPRPWWHPRP
  shrunken log2 fold change: -0.279

## RRIRHRPPRLPRPRPRPMDSPRP
  shrunken log2 fold change: -0.00141

## RRIRQRPPRLPRPRPRPCAVPRP
  shrunken log2 fold change: 0.0208

## RRIRNRPPRLPRPRPRPKRDPRP
  shrunken log2 fold change: 0.411

## RRIRCRPPRLPRPRPRPMVYPRP
  shrunken log2 fold change: -0.187

## RRIRERPPRLPRPRPRPNAIPRP
  shrunken log2 fold change: 0.185

## RRIRSRPPRLPRPRPRPQMHPRP
  shrunken log2 fold change: -0.351

## RRIRPRPPRLPRPRPRPCGVPRP
  shrunken log2 fold change: 0.205

## RRIRGRPPRLPRPRPRPQSEPRP
  shrunken log2 fold change: 0.273

## RRIRERPPRLPRPRPRPINMPRP
  shrunken log2 fold change: -0.261

## RRIRDRPPRLPRPRPRPPMHPRP
  shrunken log2 fold change: 0.319

## RRIRSRPPRLPRPRPRPAIEPRP
  shrunken log2 fold change: 0.00515

## RRIRKRPPRLPRPRPRPNVVPRP
  shrunken log2 fold change: 0.0163

## RRIRWRPPRLPRPRPRPLEHPRP
  shrunken log2 fold change: 0.165

## RRIRIRPPRLPRPRPRPYFCPRP
  shrunken log2 fold change: -1.26

## RRIRLRPPRLPRPRPRPMAWPRP
  shrunken log2 fold change: -0.0215

## RRIRWRPPRLPRPRPRPETQPRP
  shrunken log2 fold change: 0.0616

## RRIRERPPRLPRPRPRPHAKPRP
  shrunken log2 fold change: 0.0118

## RRIRGRPPRLPRPRPRPVEYPRP
  shrunken log2 fold change: -0.0779

## RRIRQRPPRLPRPRPRPTNSPRP
  shrunken log2 fold change: -0.225

## RRIRCRPPRLPRPRPRPTVPPRP
  shrunken log2 fold change: 0.247

## RRIRARPPRLPRPRPRPPIDPRP
  shrunken log2 fold change: 0.647

## RRIRCRPPRLPRPRPRPFDDPRP
  shrunken log2 fold change: 0.0116

## RRIRARPPRLPRPRPRPGAQPRP
  shrunken log2 fold change: 0.92

## RRIRSRPPRLPRPRPRPHHVPRP
  shrunken log2 fold change: -0.243

## RRIRERPPRLPRPRPRPHKPPRP
  shrunken log2 fold change: -0.519

## RRIRYRPPRLPRPRPRPQRTPRP
  shrunken log2 fold change: -0.335

## RRIRCRPPRLPRPRPRPQDAPRP
  shrunken log2 fold change: 0.0575

## RRIRVRPPRLPRPRPRPCNGPRP
  shrunken log2 fold change: 0.00489

## RRIRSRPPRLPRPRPRPILSPRP
  shrunken log2 fold change: -0.329

## RRIRKRPPRLPRPRPRPQHVPRP
  shrunken log2 fold change: -0.124

## RRIRDRPPRLPRPRPRPNDKPRP
  shrunken log2 fold change: -0.555

## RRIRYRPPRLPRPRPRPSLEPRP
  shrunken log2 fold change: -0.0996

## RRIRYRPPRLPRPRPRPNERPRP
  shrunken log2 fold change: -0.0497

## RRIRCRPPRLPRPRPRPVHGPRP
  shrunken log2 fold change: 0.267

## RRIRPRPPRLPRPRPRPCLPPRP
  shrunken log2 fold change: 0.0296

## RRIRERPPRLPRPRPRPIIRPRP
  shrunken log2 fold change: -0.447

## RRIRIRPPRLPRPRPRPYDEPRP
  shrunken log2 fold change: -0.338

## RRIRFRPPRLPRPRPRPSRAPRP
  shrunken log2 fold change: 0.352

## RRIRIRPPRLPRPRPRPFWFPRP
  shrunken log2 fold change: -0.684

## RRIRWRPPRLPRPRPRPVWGPRP
  shrunken log2 fold change: 0.131

## RRIRLRPPRLPRPRPRPIPFPRP
  shrunken log2 fold change: -0.0242

## RRIRWRPPRLPRPRPRPAWCPRP
  shrunken log2 fold change: 0.469

## RRIRQRPPRLPRPRPRPSKVPRP
  shrunken log2 fold change: -0.133

## RRIRPRPPRLPRPRPRPEHFPRP
  shrunken log2 fold change: 0.134

## RRIRARPPRLPRPRPRPWGGPRP
  shrunken log2 fold change: 0.605

## RRIRDRPPRLPRPRPRPRWHPRP
  shrunken log2 fold change: 0.42

## RRIRYRPPRLPRPRPRPKAVPRP
  shrunken log2 fold change: -0.163

## RRIRGRPPRLPRPRPRPPNKPRP
  shrunken log2 fold change: 0.528

## RRIRRRPPRLPRPRPRPFRDPRP
  shrunken log2 fold change: 0.506

## RRIRFRPPRLPRPRPRPTPMPRP
  shrunken log2 fold change: 0.178

## RRIRQRPPRLPRPRPRPCFHPRP
  shrunken log2 fold change: -0.425

## RRIRERPPRLPRPRPRPNECPRP
  shrunken log2 fold change: -0.154

## RRIRGRPPRLPRPRPRPCWNPRP
  shrunken log2 fold change: 0.183

## RRIRQRPPRLPRPRPRPMPLPRP
  shrunken log2 fold change: -0.00134

## RRIRERPPRLPRPRPRPGGVPRP
  shrunken log2 fold change: 0.0164

## RRIRHRPPRLPRPRPRPFVTPRP
  shrunken log2 fold change: -0.188

## RRIRPRPPRLPRPRPRPCRDPRP
  shrunken log2 fold change: 1.11

## RRIRTRPPRLPRPRPRPRIFPRP
  shrunken log2 fold change: -0.158

## RRIRERPPRLPRPRPRPTFVPRP
  shrunken log2 fold change: 0.0579

## RRIRARPPRLPRPRPRPMPVPRP
  shrunken log2 fold change: 0.0463

## RRIRGRPPRLPRPRPRPESWPRP
  shrunken log2 fold change: 1.7

## RRIRKRPPRLPRPRPRPQHDPRP
  shrunken log2 fold change: 0.202

## RRIRQRPPRLPRPRPRPMSDPRP
  shrunken log2 fold change: -0.0194

## RRIRVRPPRLPRPRPRPRGVPRP
  shrunken log2 fold change: 0.278

## RRIRIRPPRLPRPRPRPPVTPRP
  shrunken log2 fold change: -0.287

## RRIRGRPPRLPRPRPRPDNFPRP
  shrunken log2 fold change: 0.169

## RRIRRRPPRLPRPRPRPKPNPRP
  shrunken log2 fold change: 0.531

## RRIRLRPPRLPRPRPRPCSIPRP
  shrunken log2 fold change: -0.678

## RRIRCRPPRLPRPRPRPFNVPRP
  shrunken log2 fold change: -0.146

## RRIRVRPPRLPRPRPRPQYSPRP
  shrunken log2 fold change: 0.0315

## RRIRARPPRLPRPRPRPRRQPRP
  shrunken log2 fold change: 0.453

## RRIRGRPPRLPRPRPRPKMNPRP
  shrunken log2 fold change: 0.407

## RRIRSRPPRLPRPRPRPEWCPRP
  shrunken log2 fold change: 0.219

## RRIRDRPPRLPRPRPRPYNIPRP
  shrunken log2 fold change: -0.529

## RRIRMRPPRLPRPRPRPMMLPRP
  shrunken log2 fold change: -0.15

## RRIRGRPPRLPRPRPRPAAQPRP
  shrunken log2 fold change: 1.12

## RRIRHRPPRLPRPRPRPQPFPRP
  shrunken log2 fold change: -0.213

## RRIRKRPPRLPRPRPRPMVMPRP
  shrunken log2 fold change: 0.0746

## RRIRQRPPRLPRPRPRPWWDPRP
  shrunken log2 fold change: 0.00367

## RRIRIRPPRLPRPRPRPNINPRP
  shrunken log2 fold change: -0.918

## RRIRERPPRLPRPRPRPNSYPRP
  shrunken log2 fold change: -0.433

## RRIRGRPPRLPRPRPRPVCKPRP
  shrunken log2 fold change: 0.124

## RRIRYRPPRLPRPRPRPVDVPRP
  shrunken log2 fold change: -0.359

## RRIRPRPPRLPRPRPRPVHAPRP
  shrunken log2 fold change: 0.441

## RRIRARPPRLPRPRPRPPLHPRP
  shrunken log2 fold change: 0.467

## RRIRSRPPRLPRPRPRPSNDPRP
  shrunken log2 fold change: -0.349

## RRIRTRPPRLPRPRPRPAQVPRP
  shrunken log2 fold change: -0.112

## RRIRTRPPRLPRPRPRPRWGPRP
  shrunken log2 fold change: 0.164
